Experimental data: the supplement of paper PMC9170038

Tested on: MS2 coat protein
Test: apparent KD of MS2 coat protein; designed switch direction (-1 OFF switch, 1 ON switch): 1; higher = weaker reporter binding
Method in brief: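 Apparent KD, taken as the median over clusters for each design, was obtained by curve-fitting normalised cluster fluorescence. Designed RNA switches had been transcribed on Illumina chips by stalled E. coli RNA polymerase and titrated with SNAP-549-labelled MS2 coat protein, doubling from 0.7 or 1.5 nM to 3 µM.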

[1] = input ligand: microRNA oligo, concentration not stated
[2] = Eterna round: R95, input ligand: FMN 200 uM
[3] = Eterna round: R95, input ligand: microRNA oligo, concentration not stated
[4] = Eterna round: R95, input ligand: none

For “UGAAUAGUUACAGGAUAUCAUGCGAAAAUUGCGUGAGAAGGGUGGGUGUUGUGCGCUAAGUGCUACAUGAGGAUCACCCAUGUU [SameState NG1 #37] (Eterna round: R96, puzzle: Same State NG 1)”, the “apparent KD of MS2 coat protein” value (input ligand: FMN 200 uM) was 0.325 µM, the “apparent KD of MS2 coat protein” value [1] was 0.0288 µM and the “apparent KD of MS2 coat protein” value (input ligand: none) was 0.213 µM.

For “AUAAAACAUGAGGAUCACCCAUGUCAACAAAGUCGAGGAUAUGGGCAAAUAAAAUAAGAACCAGAAGGCGAAUAAC [salish99_SS1_r3_003] (Eterna round: R96, puzzle: Same State 1)”, the “apparent KD of MS2 coat protein” value (input ligand: FMN 200 uM) was 0.0397 µM, the “apparent KD of MS2 coat protein” value [1] was 0.215 µM and the “apparent KD of MS2 coat protein” value (input ligand: none) was 0.282 µM.

For “CACAUGAGGAUCACCCAUGUGAGGCGGCAAUAAAACCGCGCACAGGAUAUAGCGCUAAGAAAGCGCUAGAAGGGUGAUUAGAAC [Gerelabies] (Eterna round: R96, puzzle: Same State NG 3)”, the “apparent KD of MS2 coat protein” value (input ligand: FMN 200 uM) was 0.712 µM, the “apparent KD of MS2 coat protein” value [1] was 0.0208 µM and the “apparent KD of MS2 coat protein” value (input ligand: none) was 0.0711 µM.

In the case of “AGUCCAGCCUGAGCUGGACAGAAGCAUGUACAUGAGGAUCACCCAUGUCAUGUACAAGCUUUUUGCUCGUCUUAAAA [Zipper 46 - 3] (puzzle: Sensor for hsa-mir-208a)”, the “apparent KD of MS2 coat protein” value [2] is reported as 0.422 µM, the “apparent KD of MS2 coat protein” value [3] is reported as 0.0159 µM and the “apparent KD of MS2 coat protein” value [4] is reported as 0.586 µM.

For “AGAUCAUGACGAGGAUAUCCGACAUGAGGAUCACCCAUGUAUGUCGGAGGACGAAUACGUCCAAAGGAGAAGGCGUCGUGGUCA [Mat - Same State NG 2 - JL mod - D38] (Eterna round: R96, puzzle: Same State NG 2)”, the “apparent KD of MS2 coat protein” value (input ligand: FMN 200 uM) was 0.0252 µM, the “apparent KD of MS2 coat protein” value [1] was 0.0629 µM and the “apparent KD of MS2 coat protein” value (input ligand: none) was 0.0854 µM.

“AAAAAACAUGAGGAUCACCCAUGUCGAAAGACAUGAGGAUAUGUGUGGAAACCAUACUAUACAGAAGGCAUAAAAA [SS1 - 1009] (Eterna round: R96, puzzle: Same State 1)” was tested, and the “apparent KD of MS2 coat protein” value (input ligand: FMN 200 uM) was 0.0606 µM, the “apparent KD of MS2 coat protein” value [1] was 0.137 µM and the “apparent KD of MS2 coat protein” value (input ligand: none) was 0.0968 µM.

With “GCUUGCGGCGCAGGAUAUGGGUGCCUGUACAUGAGGAUCACCCAUGUUAAGGGACGGAAAACGAACCAGAAGGGCGUCGCGAGC [Inraeded] (Eterna round: R96, puzzle: Same State NG 2)” the “apparent KD of MS2 coat protein” value (input ligand: FMN 200 uM) was 0.0849 µM, the “apparent KD of MS2 coat protein” value [1] was 0.218 µM and the “apparent KD of MS2 coat protein” value (input ligand: none) was 1.28 µM.

In the case of “UUGUUUGGUAAAAUACAUGAGGAUCACCCAUGUUAUGGUGCAGAGGAUAUGCAUGUUUGAUUGAAGCAGAAGGCUGUAAGUUGU [JR_SSNG3_Sub036] (Eterna round: R96, puzzle: Same State NG 3)”, the “apparent KD of MS2 coat protein” value (input ligand: FMN 200 uM) is reported as 0.0357 µM, the “apparent KD of MS2 coat protein” value [1] is reported as 0.0355 µM and the “apparent KD of MS2 coat protein” value (input ligand: none) is reported as 0.0437 µM.

In the case of “ACAUAGGUUUCAGGAUAUGGGUAAAUUCCCAACAUGAGGAUCACCCAUGUCCGUAGGGAUAACAUCCAGAAGGGAAGCCACAUA [MOD Eternabot Solution 1 (Score 87.5)] (Eterna round: R96, puzzle: Same State NG 2)”, the “apparent KD of MS2 coat protein” value (input ligand: FMN 200 uM) is reported as 0.0893 µM, the “apparent KD of MS2 coat protein” value [1] is reported as 0.1 µM and the “apparent KD of MS2 coat protein” value (input ligand: none) is reported as 0.0594 µM.

For “AGCCGAAGCACAGGAUAUACAUGUAUACAUGAGGAUCACCCAUGUAGCAACACGUGGUAGUGAUUGUAGAAGGGUGCUCGGCGC [Omei SS(NG)2 Cv14] (Eterna round: R96, puzzle: Same State NG 2)”, the “apparent KD of MS2 coat protein” value (input ligand: FMN 200 uM) was 0.0213 µM, the “apparent KD of MS2 coat protein” value [1] was 0.016 µM and the “apparent KD of MS2 coat protein” value (input ligand: none) was 0.0253 µM.

“AUAAGGCAAGCUUUUUUCUCGUAGUGUAAACAUGAGGAUCACCCAUGUGCCCACCCUGGAUCUUUGGAUCGCAAAAC [Ceatgeor] (puzzle: Sensor for hsa-mir-208a)” was tested, and the “apparent KD of MS2 coat protein” value [2] was 0.0239 µM, the “apparent KD of MS2 coat protein” value [3] was 0.0186 µM and the “apparent KD of MS2 coat protein” value [4] was 0.0237 µM.

For “AGCUAUCGCGUACGAUAGCUGAAGCGUGUACAUGAGGAUCACCCAUGUCAUGUACAAGCUUUUUGCUCGUCUUAUUG [JL-shm-2.28 JL mod] (puzzle: Sensor for hsa-mir-208a)”, the “apparent KD of MS2 coat protein” value [2] was 0.249 µM, the “apparent KD of MS2 coat protein” value [3] was 0.0182 µM and the “apparent KD of MS2 coat protein” value [4] was 0.296 µM.

In the case of “UAGCUCGUGUGAGGAUAUGCCGCCGUUUCGGCUGCAGAAGGUGCUACGUUACAUGAGGAUCACCCAUGUCUCUGUUGUUUCGUG [salish99_SSNG1_r04_957] (Eterna round: R96, puzzle: Same State NG 1)”, the “apparent KD of MS2 coat protein” value (input ligand: FMN 200 uM) is reported as 0.0189 µM, the “apparent KD of MS2 coat protein” value [1] is reported as 0.0196 µM and the “apparent KD of MS2 coat protein” value (input ligand: none) is reported as 0.0218 µM.

“ACAAGCUUUUUGCUCCUCUUAUGUCCGAAACAUGAGGAUCACCCAUGUAUAGAUUGUGUGUUGUUGUAGAUGCAAGA [JR_SHM208A_Sub061] (Eterna round: R96, puzzle: Sensor for hsa-mir-208a)” was tested, and the “apparent KD of MS2 coat protein” value (input ligand: FMN 200 uM) was 0.0738 µM, the “apparent KD of MS2 coat protein” value [1] was 0.0634 µM and the “apparent KD of MS2 coat protein” value (input ligand: none) was 0.0741 µM.

With “UAAAGAAAGCGAGGAUAUAGCCCAUGUGAAGAACUAGAAGGCGCAGACAUGAGGAUCACCCAUGUGUUCAUGAGGAGGAGGACA [Kawasakiqro] (Eterna round: R96, puzzle: Same State NG 1)” the “apparent KD of MS2 coat protein” value (input ligand: FMN 200 uM) was 0.0886 µM, the “apparent KD of MS2 coat protein” value [1] was 0.0519 µM and the “apparent KD of MS2 coat protein” value (input ligand: none) was 0.0577 µM.

For “AGUGAACAUGAGGAUCACCCAUGUGAGAGAAGUGUAGGAUAUGUGAGAGGCGGAGGAGGGACAGAAGGACAUGGAG [JR_SS!_Sub075] (puzzle: Same State 1)”, the “apparent KD of MS2 coat protein” value [2] was 0.0387 µM, the “apparent KD of MS2 coat protein” value [3] was 0.042 µM and the “apparent KD of MS2 coat protein” value [4] was 0.0485 µM.

For “GCUAGAAUUAAUGCCUACAUGAGGAUCACCCAUGUAUGUAGGCAGGAUAUCGUUUGCAAAGCAAACGAGAAGGGCCUUACUAGC [Mat - Same State NG 3 - JL Mod - D28] (Eterna round: R96, puzzle: Same State NG 3)”, the “apparent KD of MS2 coat protein” value (input ligand: FMN 200 uM) was 0.0219 µM, the “apparent KD of MS2 coat protein” value [1] was 0.0461 µM and the “apparent KD of MS2 coat protein” value (input ligand: none) was 0.0637 µM.

“CGACACACGGCAGGAUAUGCUUAGCAAAGCUAAGCAGAAGGGCCUCAUGUCGUGGAAACGUGACAUGAGGAUCACCCAUGUUGC [Omei SS(NG)1 Cv1] (Eterna round: R96, puzzle: Same State NG 1)” was tested, and the “apparent KD of MS2 coat protein” value (input ligand: FMN 200 uM) was 0.021 µM, the “apparent KD of MS2 coat protein” value [1] was 0.00559 µM and the “apparent KD of MS2 coat protein” value (input ligand: none) was 0.0363 µM.

For “UGAACCGUCACAGGAUAUCAUGCGAAAAUUGCGUGAGAAGGGUGGAUGUUGUGCUCAAAGUUAUACAUGAGGAUCACCCAUGUU [SameState NG1 #45] (Eterna round: R96, puzzle: Same State NG 1)”, the “apparent KD of MS2 coat protein” value (input ligand: FMN 200 uM) was 0.133 µM, the “apparent KD of MS2 coat protein” value [1] was 0.188 µM and the “apparent KD of MS2 coat protein” value (input ligand: none) was 0.285 µM.

In the case of “UCUUGGUUUUUGCUCGUUUUUUGUGUUGAACAUGAGGAUCACCCAUGUAUUGUACGGUCCAGUUUGGUAAUGGUCCA [JMF 8] (puzzle: Sensor for hsa-mir-208a)”, the “apparent KD of MS2 coat protein” value [2] is reported as 0.0312 µM, the “apparent KD of MS2 coat protein” value [3] is reported as 0.0205 µM and the “apparent KD of MS2 coat protein” value [4] is reported as 0.035 µM.

In the case of “AGCCGAGACUGAGGAUAUUUAAAUCUACAUGAGGAUCACCCAUGUAACAACACGUGGUAGUGAUUGAAGAAGGCGGCUCGGCGC [Omei SS(NG)2 Cv2] (Eterna round: R96, puzzle: Same State NG 2)”, the “apparent KD of MS2 coat protein” value (input ligand: FMN 200 uM) is reported as 0.177 µM, the “apparent KD of MS2 coat protein” value [1] is reported as 0.406 µM and the “apparent KD of MS2 coat protein” value (input ligand: none) is reported as 0.404 µM.

In the case of “GCGAGCGUACUUGCAACAUGAGGAUCACCCAUGUUAACUGGACAGGAUAUGGUACCGUUUCGGUACCAGAAGGGUUCACUCAUG [JL SSNG3 3.59] (Eterna round: R96, puzzle: Same State NG 3)”, the “apparent KD of MS2 coat protein” value [1] is reported as 0.0642 µM.

For “AACACACAUGAGGAUCACCCAUGUACCGAAAUCACAGGAUAUACAUAACUGAAUAACAUUGUAGAAGGGUGGCCGG [Enorerteso] (puzzle: Same State 1)”, the “apparent KD of MS2 coat protein” value [2] was 0.0237 µM, the “apparent KD of MS2 coat protein” value [3] was 0.0657 µM and the “apparent KD of MS2 coat protein” value [4] was 0.0914 µM.

With “GCUAGGAUAUGACGAGGAUCACCCGUUAGAAGGAGCUUCGGCUAGGAUAUGACGAGGAUCACCCGUUAGAAGGAGCUGUACUCU [pwkr ssNG3 DX 2xF5 +2xFMN.9] (Eterna round: R96, puzzle: Same State NG 3)” the “apparent KD of MS2 coat protein” value (input ligand: FMN 200 uM) was 0.144 µM, the “apparent KD of MS2 coat protein” value [1] was 0.0767 µM and the “apparent KD of MS2 coat protein” value (input ligand: none) was 0.0923 µM.

“AUACUCAUGUAAGGAUAUGCAGCCGUUUCGGCUGCAGAAGGUACUAUAAUACAUGAGGAUCACCCAUGUCUCUCGCAUUGCGAG [JL SSNG1 1.47] (Eterna round: R96, puzzle: Same State NG 1)” was tested, and the “apparent KD of MS2 coat protein” value [1] was 0.0492 µM.

“GAGAAUCUAUCUCAGGAUAUCAUGUCAAAGACAUGAGGAUCACCCAUGUACCAGGAAACUGGUUAUGAGAAGGGAGAUAGAUUCG [Mat - Same State 2 - Mod - D36] (puzzle: Same State 2)” was tested, and the “apparent KD of MS2 coat protein” value [2] was 0.0861 µM, the “apparent KD of MS2 coat protein” value [3] was 0.111 µM and the “apparent KD of MS2 coat protein” value [4] was 0.0401 µM.

In the case of “GAGUGUGAAUAAGGAUAUAUGAGAGAGUGAGUAAUAGAAGGUAUACAAACAUGAGACAUGAGGAUCACCCAUGUAUCACCCAUG [Something that seems to work] (Eterna round: R96, puzzle: Same State NG 1)”, the “apparent KD of MS2 coat protein” value [1] is reported as 0.0145 µM.

In the case of “UUCGAGUUGCAAGGAUAUCUUAUUUAGAUUUUAAGAGAAGGUGCUUCACAGCUACAUGAGGAUCACCCAUGUCUUUCUUCUUAU [JR_SSNG1_Sub064] (Eterna round: R96, puzzle: Same State NG 1)”, the “apparent KD of MS2 coat protein” value [1] is reported as 0.0226 µM.
